B1: human IL-2M fused N-terminally to human IgG1 Fc domain (SEQ ID NO: 57) (Fc fusion)
chain: APTSSSTKKTQLQLEHLLLDLQMILNGINNYKNPKLTRMLTFKFYMPKKATELKHLQCLEEELKPLEEALNLAPSKNFHLRPRDLISDINVIVLELKGSETTFMCEYADETATIVEFLNRWITFSQSIISTLTGGGGSGGGGSGGGGSGGGGSDKTHTCPPCPAPEAAGAPSVFLFPPKPKDTLMISRTPEVTCVVVDVSHEDPEVKFNWYVDGVEVHNAKTKPREEQYNSTYRVVSVLTVLHQDWLNGKEYKCKVSNKALPAPIEKTISKAKGQPREPQVYTLPPSREEMTKNQVSLTCLVKGFYPSDIAVEWESNGQPENNYKTTPPVLDSDGSFFLYSKLTVDKSRWQQGNVFSCSVMHEALHNHYTQKSLSLSPG
notes: also called IL-2 N88D V69A, Q74P-G4Sx4-Fc
B2: IL-2M SEQ ID NO: 55 (Fc fusion)
chain: APTSSSTKKTQLQLEHLLLDLQMILNGINNYKNPKLTRMLTFKFYMPKKATELKHLQCLEEELKPLEEALNLAPSKNFHIRPRDLISDINVIVLELKGSETTFMCEYADETATIVEFLNRWITFSQSIISTLTGGGGSGGGGSGGGGSGGGGSDKTHTCPPCPAPEAAGAPSVFLFPPKPKDTLMISRTPEVTCVVVDVSHEDPEVKFNWYVDGVEVHNAKTKPREEQYNSTYRVVSVLTVLHQDWLNGKEYKCKVSNKALPAPIEKTISKAKGQPREPQVYTLPPSREEMTKNQVSLTCLVKGFYPSDIAVEWESNGQPENNYKTTPPVLDSDGSFFLYSKLTVDKSRWQQGNVFSCSVMHEALHNHYTQKSLSLSPG
notes: also called IL-2 L80I N88D V69A, C125S Q74P-G4Sx4-Fc
B3: IL-2M SEQ ID NO: 54 (Fc fusion)
chain: APTSSSTKKTQLQLEHLLLDLQMILNGINNYKNPKLTRMLTFKFYMPKKATELKHIQCLEEELKPLEEALNLAPSKNFHLRPRDLISDINVIVLELKGSETTFMCEYADETATIVEFLNRWITFSQSIISTLTGGGGSGGGGSGGGGSGGGGSDKTHTCPPCPAPEAAGAPSVFLFPPKPKDTLMISRTPEVTCVVVDVSHEDPEVKFNWYVDGVEVHNAKTKPREEQYNSTYRVVSVLTVLHQDWLNGKEYKCKVSNKALPAPIEKTISKAKGQPREPQVYTLPPSREEMTKNQVSLTCLVKGFYPSDIAVEWESNGQPENNYKTTPPVLDSDGSFFLYSKLTVDKSRWQQGNVFSCSVMHEALHNHYTQKSLSLSPG
notes: also called IL-2 L56I N88D V69A, Q74P, C125S-G4Sx4-Fc
B4: IL-2M SEQ ID NO: 53 (Fc fusion)
chain: APTSSSTKKTQLQLEHLLLDLQMILNGINNYKNPKLTRMLTFKFYMPKKATEIKHLQCLEEELKPLEEALNLAPSKNFHLRPRDLISDINVIVLELKGSETTFMCEYADETATIVEFLNRWITFSQSIISTLTGGGGSGGGGSGGGGSGGGGSDKTHTCPPCPAPEAAGAPSVFLFPPKPKDTLMISRTPEVTCVVVDVSHEDPEVKFNWYVDGVEVHNAKTKPREEQYNSTYRVVSVLTVLHQDWLNGKEYKCKVSNKALPAPIEKTISKAKGQPREPQVYTLPPSREEMTKNQVSLTCLVKGFYPSDIAVEWESNGQPENNYKTTPPVLDSDGSFFLYSKLTVDKSRWQQGNVFSCSVMHEALHNHYTQKSLSLSPG
notes: also called IL-2 L53I N88D V69A, Q74P, C125S-G4Sx4-Fc
B5: IL-2M SEQ ID NO: 56 (Fc fusion)
chain: APTSSSTKKTQLQLEHLLLDLQMILNGINNYKNPKLTRMLTFKFYMPKKATELKHLQCLEEELKPLEEALNLAPSKNFHLRPRDLISDINVIVLELKGSETTFMCEYADETATIVEFINRWITFSQSIISTLTGGGGSGGGGSGGGGSGGGGSDKTHTCPPCPAPEAAGAPSVFLFPPKPKDTLMISRTPEVTCVVVDVSHEDPEVKFNWYVDGVEVHNAKTKPREEQYNSTYRVVSVLTVLHQDWLNGKEYKCKVSNKALPAPIEKTISKAKGQPREPQVYTLPPSREEMTKNQVSLTCLVKGFYPSDIAVEWESNGQPENNYKTTPPVLDSDGSFFLYSKLTVDKSRWQQGNVFSCSVMHEALHNHYTQKSLSLSPG
notes: also called IL-2 L118I N88D V69A, Q74P, C125S-G4Sx4-Fc

What follows are binders tested against T1, CD25 (Homo sapiens (Human), UniProt P01589 22-240) (assay: ELISA, plate-bound CD25).
T1 construct: also called IL-2R alpha chain
T1 sequence: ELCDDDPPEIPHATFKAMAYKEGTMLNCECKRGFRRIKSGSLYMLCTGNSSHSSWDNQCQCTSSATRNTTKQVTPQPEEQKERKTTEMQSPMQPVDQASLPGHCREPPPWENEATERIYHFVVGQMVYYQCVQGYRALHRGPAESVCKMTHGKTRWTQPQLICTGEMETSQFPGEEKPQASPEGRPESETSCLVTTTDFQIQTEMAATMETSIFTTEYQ
Description: An immunosorbent plate was coated with CD25 at a concentration of 0.5 μg/mL in PBS pH 7.4, 75 ul/well, and incubated overnight at 4° C. Wells were washed with PBS pH 7.4 containing 0.05% Tween-20 (wash buffer) three times, and then blocked with 200 ul/well 1% BSA in PBS pH 7.4 (block buffer) for two hours at room temperature. After three washes with wash buffer IL-2M molecules of Example 12 were diluted to eleven—two fold serial dilution in PBS containing 1% BSA and 0.05% Tween-20 (assay buffer) with 2 nM being the highest concentration. The diluted material was added to the CD25 coated plate at 75 ul/well for 1 hour at room temperature. After three washes with wash buffer, a goat biotinylated anti-IL-2 polyclonal antibody, diluted to 0.05 μg/mL in assay buffer, was added to the plate at 75 ul/well for 1 hr at room temperature. After three washes with wash buffer high sensitivity streptavidin HRP diluted in assay buffer at 1:5000 was added to the plate at 75 ul/well for 15 minutes at room temperature. After three washes with wash buffer and 1 wash with wash buffer (with no tween-20), the assay was developed with TMB, and stopped with 1N HCL. OD 450 nm was measured. The experiment included appropriate controls for non-specific binding of IL-2M molecules to the plate/block in the absence of CD25 and a negative control molecule that is unable to bind CD25.

EC50, < 1 nM:
B1
B2
B3
B4
B5
